Several values for one entry are separate records, joined by “and”; a condition that tells them apart may be missing. Equal entries are not always repeated. Blank lines part the entries; values can stand above or below the molecule they belong to.
Legend:
[1] = target: Drp1 with deletion of the MoRF-1 sequence (human) (UniProt O00429); test: mass photometry; Drp1 in solution; molecular weight determined by mass photometry; conditions not given
[2] = target: the molecule itself; test: as above

stoichiometry N [1]: 2
Molecule: Drp1 with deletion of the MoRF-1 sequence (from UniProt O00429-4 1-699) (enzyme)

B1: dynamin-related protein 1 (Drp1) isoform 3, full-length human (enzyme, UniProt O00429-4 1-699, looked up)
chain: MEALIPVINKLQDVFNTVGADIIQLPQIVVVGTQSSGKSSVLESLVGRDLLPRGTGIVTRRPLILQLVHVSQEDKRKTTGEENGVEAEEWGKFLHTKNKLYTDFDEIRQEIENETERISGNNKGVSPEPIHLKIFSPNVVNLTLVDLPGMTKVPVGDQPKDIELQIRELILRFISNPNSIILAVTAANTDMATSEALKISREVDPDGRRTLAVITKLDLMDAGTDAMDVLMGRVIPVKLGIIGVVNRSQLDINNKKSVTDSIRDEYAFLQKKYPSLANRNGTKYLARTLNRLLMHHIRDCLPELKTRINVLAAQYQSLLNSYGEPVDDKSATLLQLITKFATEYCNTIEGTAKYIETSELCGGARICYIFHETFGRTLESVDPLGGLNTIDILTAIRNATGPRPALFVPEVSFELLVKRQIKRLEEPSLRCVELVHEEMQRIIQHCSNYSTQELLRFPKLHDAIVEVVTCLLRKRLPVTNEMVHNLVAIELAYINTKHPDFADACGLMNNNIEEQRRNRLARELPSAVSRDKVASGGGGVGDGVQEPTTGNWRGMLKTSKAEELLAEEKSKPIPIMPASPQKGHAVNLLDVPVPVARKLSAREQRDCEVIERLIKSYFLIVRKNIQDSVPKAVMHFLVNHVKDTLQSELVGQLYKSSLLDDLLTESEDMAQRRKEAADMLKALQGASQIIAEIRETHLW
notes: human dynamin-related protein 1 (Drp1), isoform 3, UniProt O00429-4, full length; CBP tag removed with PreScission protease; also called Drp1-3; WT; source: E. coli BL21 (DE3) Star, purified (calmodulin agarose, SEC)
stoichiometry N [2]: 2 and 4 and 6

— PMC12790805, “The Structure of the Drp1 Lattice on Membrane” (Journal of molecular biology, 2025)
